Reference: patent publication US20130266515, “Specific Ligand for Annexin 2” (Commissariat A L'Energie Atomique ET AUX Energies …, published 2013)

Experiments:
[1] = target: T1, annexin 2 (Homo sapiens, UniProt P07355 SEQ:2-339); test: A-431 cells, Scatchard; Cmax 450 pM; conditions: label: 32P, phycoerythrin, Alexa Fluor 546, biotin or Quantum Dot depending on assay; predicted secondary structure with potential pseudoknots
Description: (§1) The binding curves were obtained for each cell type. On the basis of the specific binding, and using the Scatchard representation, the Kd and the number of targets per cell were determined for each of the cell types. The target of the ACE8 aptamer appears to be highly abundant at the surface of two human cancer lines (MCF-7 and A-431).

[2] = target: T1, annexin 2; test: MDA-MB-231 cells, Scatchard; Cmax 167 pM; conditions: label: 32P, phycoerythrin, Alexa Fluor 546, biotin or Quantum Dot depending on assay; predicted secondary structure with potential pseudoknots
Description: as §1

[3] = target: T1, annexin 2; test: U87-MG cells, Scatchard; Cmax 245 pM; conditions: label: 32P, phycoerythrin, Alexa Fluor 546, biotin or Quantum Dot depending on assay; predicted secondary structure with potential pseudoknots
[4] = target: annexin 2/S100A10 heterotetrameric complex (Bos taurus, UniProt P04272;P60902 P04272:2-339,P60902:2-97); test: filter; 0-12.5 nM protein, 1 pmol RNA in 200 ul RPMI 1640, 3 ug yeast tRNA, ambient temperature; very strong affinity compared with control; conditions: tags: purified from bovine lung, Interchim A80109B; chain copies: 2 annexin 2 + 2 S100A10 (stated); label: 32P, phycoerythrin, Alexa Fluor 546, biotin or Quantum Dot depending on assay; predicted secondary structure with potential pseudoknots
Description: 1 pmol of ACE8 aptamer or of the control sequence was then preincubated with various concentrations of an annexin 2/S100A10 heterotetrameric complex. The fraction of ACE8 aptamer or of control sequence bound to the annexin 2/S100A10 heterotetramer was retained on a nitrocellulose filter and analyzed and quantified using a Storm Phosphorimager. […] FIG. 23 represents the quantification of the amount of oligonucleotides retained on the filter as a function of the concentration of annexin 2/S100A10 heterotetramer.
For this, the oligonucleotides (ACE8 aptamer or control sequence (SEQ ID NO: 11)) were dephosphorylated at their 5′ end for 30 min at 37° C. with 2.5 U of Antarctic Phosphatase (New-England Biolabs) per nmol of 2′F-Py RNA. After inactivation of the enzyme at 88° C. for 15 min, the 2′F-Py RNA was precipitated with ethanol in the presence of 5 μl/ml of a neutral coprecipitant (Linear Polyacrylamide or LPA) (Ambion). The oligonucleotides were then labeled with ATP [gamma-³²P] using T4 kinase (invitrogen) according to the supplier's instructions. The 2′F-Py RNAs (2.3 MBq, i.e. 63nCi/pmol or 63nCi/pmol⁻¹) were subsequently purified by exclusion chromatography (Bio-Spin Sp30 Chromatography Columns (Biorad)). […]

[5] = target: T1, annexin 2; test: HEK-293 cells, Scatchard; Cmax 269 pM; conditions: label: 32P, phycoerythrin, Alexa Fluor 546, biotin or Quantum Dot depending on assay; predicted secondary structure with potential pseudoknots

T1 sequence (P07355 2-339): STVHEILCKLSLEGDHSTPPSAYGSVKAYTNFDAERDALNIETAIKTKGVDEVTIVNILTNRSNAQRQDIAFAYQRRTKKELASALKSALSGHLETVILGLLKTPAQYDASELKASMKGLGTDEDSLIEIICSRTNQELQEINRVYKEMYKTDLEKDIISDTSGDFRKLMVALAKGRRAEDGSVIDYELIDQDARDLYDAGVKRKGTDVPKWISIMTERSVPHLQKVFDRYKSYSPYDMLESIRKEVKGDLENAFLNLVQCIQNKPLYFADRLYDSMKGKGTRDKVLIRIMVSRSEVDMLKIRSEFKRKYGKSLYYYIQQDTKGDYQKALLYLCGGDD
Sequence of annexin 2/S100A10 heterotetrameric complex (P04272 2-339, chain 1 of 2): as the sequence (P07355 2-339) above, with A65E, I159V, P222C, D229E, R244K, R308K counted along it
Sequence of annexin 2/S100A10 heterotetrameric complex (P60902 2-97, chain 2 of 2): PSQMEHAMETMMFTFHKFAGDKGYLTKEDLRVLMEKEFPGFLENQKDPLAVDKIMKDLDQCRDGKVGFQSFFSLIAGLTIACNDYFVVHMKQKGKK

B1: ACE8 (ssRNA)
RNA: GGGAGAUGAUCCGUUGAUGCGAGGGAACGCAAGAACUGAGGCCAUGAGGCGCCUUCCCUUGCUCAGGACGCAAGUCGUCGUUCGUAGGCAGAAUC
modifications: 2'-F pyrimidines, 2'-OH purines
Q: B1 was tested. Which Kd [1] did it give?
A: 5.3 nM

Q: What about the Kd [2] of the same binder?
A: 4.4 nM

Q: What about the Kd [3] of the same binder?
A: 12.7 nM

Q: Does B1 bind [4]?
A: binds

Q: And the Kd [5]?
A: 4.4 nM
